Relative binding against mAb X data for one substance are collected here from article PMC8225904.

For this assay, the target named is mAb X’ (E262K sequence variant containing mAb X). Description: ELISA; plates coated with serially diluted mAb, constant amount of C1q added, detected with biotinylated anti-C1q antibody and HRP-streptavidin; relative binding by parallel line analysis against mAb X. A general note: An ELISA detects its analyte on a solid surface through an enzyme-linked reagent.

Take C1q protein (complex): the relative binding against mAb X turned out to be 0.95.
